Test results as given in US20130079278A1 (Novo Nordisk, published 2013).
Each block holds one binder with its values, some of them ahead of it. *1 amine or outer side, *2 acyl side, *3 side chain or, on linkers, in order; H or OH if unused. Where no end group is shown, it is not given here. Side-chain parts run from the residue outwards. The star is where a group is joined. C18 diacid = O=C(O)CCCCCCCCCCCCCCCCC(=O)*; C16 diacid = O=C(O)CCCCCCCCCCCCCCC(=O)*; γGlu = O=C(O)[C@H](CCC(=O)[*:2])N[*:1]; AEEA = NCCOCCOCC(=O)O

Biological target: glucagon receptor (human, UniProt P47871 26-477)
Sequence (P47871 26-477): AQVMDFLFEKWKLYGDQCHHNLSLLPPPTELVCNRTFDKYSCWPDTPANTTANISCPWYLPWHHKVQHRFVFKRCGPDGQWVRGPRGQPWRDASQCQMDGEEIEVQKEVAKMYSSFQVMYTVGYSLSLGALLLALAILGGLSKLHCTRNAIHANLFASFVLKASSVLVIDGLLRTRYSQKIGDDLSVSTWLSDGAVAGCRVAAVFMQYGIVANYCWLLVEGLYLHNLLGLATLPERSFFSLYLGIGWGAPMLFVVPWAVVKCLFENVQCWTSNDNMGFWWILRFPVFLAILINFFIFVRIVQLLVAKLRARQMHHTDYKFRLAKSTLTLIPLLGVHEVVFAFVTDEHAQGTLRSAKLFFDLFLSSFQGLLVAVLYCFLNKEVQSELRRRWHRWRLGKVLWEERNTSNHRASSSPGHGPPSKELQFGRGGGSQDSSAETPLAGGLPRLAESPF
Test: cell-based or functional assay

Binder: HSQGTFTSDYSRYLDLRRAQDFVK([γGlu-γGlu-γGlu-C16 diacid])WLLST
Assay (I) Glucagon [EC50]: 27 pM

Binder: HSQGTFTSDYSKYLDLRRAQDFVK([γGlu-γGlu-AEEA-AEEA-γGlu-C16 diacid])WLLST
Assay (I) Glucagon [EC50]: 39 pM

Binder: HSQGTFTSDYSRYLDTRRAQDFVK([γGlu-γGlu-AEEA-AEEA-γGlu-C16 diacid])WLLST
Assay (I) Glucagon [EC50]: 25 pM

Binder: HSQGTFTSDYSKYLDVRRAQDFVK([γGlu-γGlu-AEEA-AEEA-γGlu-C16 diacid])WLLST
Assay (I) Glucagon [EC50]: 9 pM

Binder: HSQGTFTSDYSRYLDERRAQDFVK([γGlu-γGlu-AEEA-AEEA-γGlu-C16 diacid])WLLST
Assay (I) Glucagon [EC50]: 29 pM

Binder: HSQGTFTSDYSRYLDLRRAQDFVK([γGlu-γGlu-AEEA-AEEA-γGlu-C16 diacid])WLLGT
Assay (I) Glucagon [EC50]: 90 pM

Binder: HSQGTFTSDYSKYLDTRRAQDFVK([γGlu-γGlu-AEEA-AEEA-γGlu-C16 diacid])WLLST
Assay (I) Glucagon [EC50]: 17 pM

Binder: HSQGTFTSDYSKYLDERRAQDFVK([γGlu-γGlu-AEEA-AEEA-γGlu-C16 diacid])WLLST
Assay (I) Glucagon [EC50]: 17 pM

Binder: HSQGTFTSDYSRYLDARRAQDFVK([γGlu-γGlu-AEEA-AEEA-γGlu-C16 diacid])WLLST
Assay (I) Glucagon [EC50]: 22 pM

Binder: HSQGTFTSDYSRYLDLRRAQDFVK([γGlu-γGlu-AEEA-AEEA-γGlu-C18 diacid])WLLGT
Assay (I) Glucagon [EC50]: 470 pM

Binder: HSQGTFTSDYSRYLDVRRAQDFVK([γGlu-γGlu-AEEA-AEEA-γGlu-C16 diacid])WLLST
Assay (I) Glucagon [EC50]: 26 pM

Binder: HSQGTFTSDYSRYLDLRRAQDFVK([γGlu-γGlu-AEEA-AEEA-γGlu-C18 diacid])WLLAT
Assay (I) Glucagon [EC50]: 253 pM

Binder: HSQGTFTSDYSKYLDARRAQDFVK([γGlu-γGlu-AEEA-AEEA-γGlu-C16 diacid])WLLST
Assay (I) Glucagon [EC50]: 16 pM

Binder: HSQGTFTSDYSRYLDLRRAQDFVK([γGlu-γGlu-AEEA-AEEA-γGlu-C16 diacid])WLLAT
Assay (I) Glucagon [EC50]: 64 pM

Binder: HSQGTFTSDYSKYLDIRRAQDFVK([γGlu-γGlu-AEEA-AEEA-γGlu-C18 diacid])WLLNT
Assay (I) Glucagon [EC50]: 81 pM

Binder: HSHGTFTSDYSKYLETRRAQDFVK([γGlu-γGlu-AEEA-AEEA-γGlu-C18 diacid])WLLNT
Assay (I) Glucagon [EC50]: 36 pM

Now from value to binder:

Assay (I) Glucagon [EC50]: 66 pM
Binder: HSQGTFTSDYSRYLDARRAQDFVK([γGlu-γGlu-γGlu-C18 diacid])WLLST

Assay (I) Glucagon [EC50]: 812 pM
B1: N^ε24-[(4S)-4-carboxy-4-[[(4S)-4-carboxy-4-[[(4S)-4-carboxy-4-[[(4S)-4-carboxy-4-(17-carboxyheptadecanoylamino)butanoyl]amino]butanoyl]amino]butanoyl]amino]buta … (peptide)
peptide: HSQGTFTSDYSKYLDLRRAQDFVK([γGlu-γGlu-γGlu-γGlu-C18 diacid])WLLST-NH2
modifications: N-terminus assumed
SMILES: CC(C)C[C@H](NC(=O)[C@H](CC(=O)O)NC(=O)[C@H](CC(C)C)NC(=O)[C@H](Cc1ccc(O)cc1)NC(=O)[C@H](CCCCN)NC(=O)[C@H](CO)NC(=O)[C@H](Cc1ccc(O)cc1)NC(=O)[C@H](CC(=O)O)NC(=O)[C@H](CO)NC(=O)[C@@H](NC(=O)[C@H](Cc1ccccc1)NC(=O)[C@@H](NC(=O)CNC(=O)[C@H](CCC(N)=O)NC(=O)[C@H](CO)NC(=O)[C@@H](N)Cc1c[nH]cn1)[C@@H](C)O)[C@@H](C)O)C(=O)N[C@@H](CCCNC(=N)N)C(=O)N[C@@H](CCCNC(=N)N)C(=O)N[C@@H](C)C(=O)N[C@@H](CCC(N)=O)C(=O)N[C@@H](CC(=O)O)C(=O)N[C@@H](Cc1ccccc1)C(=O)N[C@H](C(=O)N[C@@H](CCCCNC(=O)CC[C@H](NC(=O)CC[C@H](NC(=O)CC[C@H](NC(=O)CC[C@H](NC(=O)CCCCCCCCCCCCCCCCC(=O)O)C(=O)O)C(=O)O)C(=O)O)C(=O)O)C(=O)N[C@@H](Cc1c[nH]c2ccccc12)C(=O)N[C@@H](CC(C)C)C(=O)N[C@@H](CC(C)C)C(=O)N[C@@H](CO)C(=O)N[C@H](C(N)=O)[C@@H](C)O)C(C)C

Assay (I) Glucagon [EC50]: 343 pM
Binder: HSQGTFTSDYSRYLDLRRAQDFVK([γGlu-γGlu-γGlu-γGlu-C18 diacid])WLLST

Assay (I) Glucagon [EC50]: 189 pM
Binder: HSQGTFTSDYSKYLDIRRAQDFVK([γGlu-γGlu-γGlu-γGlu-C18 diacid])WLLST

Assay (I) Glucagon [EC50]: 402 pM
B2: N^ε24-[(4S)-4-carboxy-4-[[(4S)-4-carboxy-4-[[(4S)-4-carboxy-4-[[(4S)-4-carboxy-4-(17-carboxyheptadecanoylamino)butanoyl]amino]butanoyl]amino]butanoyl]amino]buta … (peptide)
peptide: HSQGTFTSDYSKYLDIRRAQDFVK([γGlu-γGlu-γGlu-γGlu-C18 diacid])WLLST-NH2
modifications: N-terminus assumed
SMILES: CC[C@H](C)[C@H](NC(=O)[C@H](CC(=O)O)NC(=O)[C@H](CC(C)C)NC(=O)[C@H](Cc1ccc(O)cc1)NC(=O)[C@H](CCCCN)NC(=O)[C@H](CO)NC(=O)[C@H](Cc1ccc(O)cc1)NC(=O)[C@H](CC(=O)O)NC(=O)[C@H](CO)NC(=O)[C@@H](NC(=O)[C@H](Cc1ccccc1)NC(=O)[C@@H](NC(=O)CNC(=O)[C@H](CCC(N)=O)NC(=O)[C@H](CO)NC(=O)[C@@H](N)Cc1c[nH]cn1)[C@@H](C)O)[C@@H](C)O)C(=O)N[C@@H](CCCNC(=N)N)C(=O)N[C@@H](CCCNC(=N)N)C(=O)N[C@@H](C)C(=O)N[C@@H](CCC(N)=O)C(=O)N[C@@H](CC(=O)O)C(=O)N[C@@H](Cc1ccccc1)C(=O)N[C@H](C(=O)N[C@@H](CCCCNC(=O)CC[C@H](NC(=O)CC[C@H](NC(=O)CC[C@H](NC(=O)CC[C@H](NC(=O)CCCCCCCCCCCCCCCCC(=O)O)C(=O)O)C(=O)O)C(=O)O)C(=O)O)C(=O)N[C@@H](Cc1c[nH]c2ccccc12)C(=O)N[C@@H](CC(C)C)C(=O)N[C@@H](CC(C)C)C(=O)N[C@@H](CO)C(=O)N[C@H](C(N)=O)[C@@H](C)O)C(C)C

Assay (I) Glucagon [EC50]: 62 pM
Binder: HSQGTFTSDYSRYLDARRAQDFVK([γGlu-γGlu-γGlu-γGlu-C18 diacid])WLLST

Assay (I) Glucagon [EC50]: 126 pM
Binder: HSQGTFTSDYSKYLDLRRAQDFVK([γGlu-γGlu-γGlu-γGlu-C18 diacid])WLLST

Assay (I) Glucagon [EC50]: 268 pM
B3: N^ε24-[(4S)-4-carboxy-4-[[(4S)-4-carboxy-4-[[(4S)-4-carboxy-4-[[(4S)-4-carboxy-4-(17-carboxyheptadecanoylamino)butanoyl]amino]butanoyl]amino]butanoyl]amino]buta … (peptide)
peptide: HSQGTFTSDYSKYLDVRRAQDFVK([γGlu-γGlu-γGlu-γGlu-C18 diacid])WLLST-NH2
modifications: N-terminus assumed
SMILES: CC(C)C[C@H](NC(=O)[C@H](Cc1c[nH]c2ccccc12)NC(=O)[C@H](CCCCNC(=O)CC[C@H](NC(=O)CC[C@H](NC(=O)CC[C@H](NC(=O)CC[C@H](NC(=O)CCCCCCCCCCCCCCCCC(=O)O)C(=O)O)C(=O)O)C(=O)O)C(=O)O)NC(=O)[C@@H](NC(=O)[C@H](Cc1ccccc1)NC(=O)[C@H](CC(=O)O)NC(=O)[C@H](CCC(N)=O)NC(=O)[C@H](C)NC(=O)[C@H](CCCNC(=N)N)NC(=O)[C@H](CCCNC(=N)N)NC(=O)[C@@H](NC(=O)[C@H](CC(=O)O)NC(=O)[C@H](CC(C)C)NC(=O)[C@H](Cc1ccc(O)cc1)NC(=O)[C@H](CCCCN)NC(=O)[C@H](CO)NC(=O)[C@H](Cc1ccc(O)cc1)NC(=O)[C@H](CC(=O)O)NC(=O)[C@H](CO)NC(=O)[C@@H](NC(=O)[C@H](Cc1ccccc1)NC(=O)[C@@H](NC(=O)CNC(=O)[C@H](CCC(N)=O)NC(=O)[C@H](CO)NC(=O)[C@@H](N)Cc1c[nH]cn1)[C@@H](C)O)[C@@H](C)O)C(C)C)C(C)C)C(=O)N[C@@H](CC(C)C)C(=O)N[C@@H](CO)C(=O)N[C@H](C(N)=O)[C@@H](C)O

Assay (I) Glucagon [EC50]: 134 pM
Binder: HSQGTFTSDYSKYLDVRRAQDFVK([γGlu-γGlu-γGlu-γGlu-C18 diacid])WLLST
